According to publication PMC10786891, “Massively parallel profiling of RNA-targeting CRISPR-Cas13d”:
Substitutions are numbered along the chain they refer to. Numbers in names are those of the source.

B1: target 1 C6U,U8G (mixed)
RNA 1: CACCCGUGCAAAAAUGCAGGGGUCUAAAACUGAGCGGAUAACCUCUCUAUGG
RNA 2: GGGAAUGGAUCCACAUCUACGAAUUCGUACCAUAGAGAGGUUAGCUGCUCACCGAGAUCGGAAGAGCACACGU
B2: target 1 U11G,G13C (mixed)
RNA 1: B1 RNA 1
RNA 2: B1 RNA 2 with G39C, U41G, G44U, U46C
B3: target 1 C7U,U10G (mixed)
RNA 1: B1 RNA 1
RNA 2: B1 RNA 2 with U42G, G44U, C45U, U46C
B4: target 3 C6A,U22C (mixed)
RNA 1: CACCCGUGCAAAAUUGCAGGGGUCUAAAACGACCUGAAUAUUUCAGAUCAAA
RNA 2: GGGAAUGGAUCCACAUCUACGAAUUCGUUCUUGAUCUGAAAUAUUAAGGUCUGCAGAUCGGAAGAGCACACGU
B5: target 3 A5C,U8G (mixed)
RNA 1: B4 RNA 1
RNA 2: B4 RNA 2 with C30U, U44G, A46C, A47C
B6: target 3 insA 3' of 10,insG 3' of 7 (mixed)
RNA 1: B4 RNA 1
RNA 2: GGGAAUGGAUCCACAUCUACGAAUUCGUUUUUGAUCUGAAAUAAUUGCAGGUCUGCAGAUCGGAAGAGCACACGU
B7: target 3 insU 3' of 5,insC 3' of 2 (mixed)
RNA 1: B4 RNA 1
RNA 2: B6 RNA 2 with A44U, U46C, G47A, C48U, A49G, G51U, U52C
B8: target 3 insU 3' of 5,insG 3' of 1 (mixed)
RNA 1: B4 RNA 1
RNA 2: B6 RNA 2 with A44U, U46C, G47A, C48U, A49G, G51U, U52C, C53G
B9: target 3 insU 3' of 5,insA 3' of 1 (mixed)
RNA 1: B4 RNA 1
RNA 2: B6 RNA 2 with A44U, U46C, G47A, C48U, A49G, G51U, U52C, C53A
B10: target 3 insC 3' of 22,insU 3' of 5 (mixed)
RNA 1: B4 RNA 1
RNA 2: GGGAAUGGAUCCACAUCUACGAAUUCGUUUCUUGAUCUGAAAUAUUCAUGGUCUGCAGAUCGGAAGAGCACACGU
B11: target 3 complement block 4-6 (mixed)
RNA 1: B4 RNA 1
RNA 2: B4 RNA 2 with C30U, A46G, A47U, G48C
B12: target 3 G4C,A5G (mixed)
RNA 1: B4 RNA 1
RNA 2: B4 RNA 2 with C30U, A46C, A47G, G48C
B13: target 3 insG 3' of 2,insU 3' of 1 (mixed)
RNA 1: B4 RNA 1
RNA 2: B6 RNA 2 with A44U, U46C, G47A, C48G, A49G, G50U, U52C, C53U
B14: target 3 U2G,A11G (mixed)
RNA 1: B4 RNA 1
RNA 2: B4 RNA 2 with C30U, A41G, A46C, U50G
B15: target 3 insU 3' of 22,insC 3' of 3 (mixed)
RNA 1: B4 RNA 1
RNA 2: B10 RNA 2 with C31U, U49G, G51C
B16: target 3 insC 3' of 12,insG 3' of 2 (mixed)
RNA 1: B4 RNA 1
RNA 2: B6 RNA 2 with A41C, U42A, A43U, G47C, C48A, A49G, G51U, U52G
B17: target 3 A18G,U22C (mixed)
RNA 1: B4 RNA 1
RNA 2: B4 RNA 2 with A34G, A46C
B18: target 3 insG 3' of 9,insG 3' of 9 (mixed)
RNA 1: B4 RNA 1
RNA 2: B6 RNA 2 with A44G, U45G, G47U
B19: target 3 C1U,C16U (mixed)
RNA 1: B4 RNA 1
RNA 2: B4 RNA 2 with C30U, C36U, A46C, C51U
B20: target 3 insC 3' of 5,insU 3' of 5 (mixed)
RNA 1: B4 RNA 1
RNA 2: B6 RNA 2 with A44U, U46C, G47A, A49U
B21: target 3 G4A,A5G (mixed)
RNA 1: B4 RNA 1
RNA 2: B4 RNA 2 with C30U, A46C, A47G, G48A
B22: target 3 insA 3' of 22,insG 3' of 7 (mixed)
RNA 1: B4 RNA 1
RNA 2: B10 RNA 2 with C31A, C47G, A48C, U49A
B23: target 3 insU 3' of 9,insG 3' of 8 (mixed)
RNA 1: B4 RNA 1
RNA 2: B6 RNA 2 with A44U, U46G, G47U
B24: target 3 insA 3' of 14,insC 3' of 3 (mixed)
RNA 1: B4 RNA 1
RNA 2: B6 RNA 2 with U42A, A43U, G47C, C48A, A49G, G51C
B25: target 3 A5G,A9G (mixed)
RNA 1: B4 RNA 1
RNA 2: B4 RNA 2 with C30U, A43G, A46C, A47G
B26: target 3 insU 3' of 5,insU 3' of 1 (mixed)
RNA 1: B4 RNA 1
RNA 2: B6 RNA 2 with A44U, U46C, G47A, C48U, A49G, G51U, U52C, C53U
B27: target 3 U2A,A5G (mixed)
RNA 1: B4 RNA 1
RNA 2: B4 RNA 2 with C30U, A46C, A47G, U50A
B28: target 3 U2A,A5C (mixed)
RNA 1: B4 RNA 1
RNA 2: B4 RNA 2 with C30U, A46C, A47C, U50A
B29: target 3 U2G,G4C (mixed)
RNA 1: B4 RNA 1
RNA 2: B4 RNA 2 with C30U, A46C, G48C, U50G
B30: target 3 insC 3' of 11,insC 3' of 3 (mixed)
RNA 1: B4 RNA 1
RNA 2: B6 RNA 2 with U42C, A43U, G47C, C48A, A49G, G51C
B31: target 3 insA 3' of 4 (mixed)
RNA 1: B4 RNA 1
RNA 2: GGGAAUGGAUCCACAUCUACGAAUUCGUUUUUGAUCUGAAAUAUUCAGAGUCUGCAGAUCGGAAGAGCACACGU
B32: target 3 G4C,C6G (mixed)
RNA 1: B4 RNA 1
RNA 2: B4 RNA 2 with C30U, A46G, G48C
B33: target 3 G3C,A18G (mixed)
RNA 1: B4 RNA 1
RNA 2: B4 RNA 2 with C30U, A34G, A46C, G49C

Biological target: T1, EsCas13d, nuclease-dead (Eubacterium siraeum, UniProt B0MS50, R295A;H300A;R849A;H854A)
T1 sequence: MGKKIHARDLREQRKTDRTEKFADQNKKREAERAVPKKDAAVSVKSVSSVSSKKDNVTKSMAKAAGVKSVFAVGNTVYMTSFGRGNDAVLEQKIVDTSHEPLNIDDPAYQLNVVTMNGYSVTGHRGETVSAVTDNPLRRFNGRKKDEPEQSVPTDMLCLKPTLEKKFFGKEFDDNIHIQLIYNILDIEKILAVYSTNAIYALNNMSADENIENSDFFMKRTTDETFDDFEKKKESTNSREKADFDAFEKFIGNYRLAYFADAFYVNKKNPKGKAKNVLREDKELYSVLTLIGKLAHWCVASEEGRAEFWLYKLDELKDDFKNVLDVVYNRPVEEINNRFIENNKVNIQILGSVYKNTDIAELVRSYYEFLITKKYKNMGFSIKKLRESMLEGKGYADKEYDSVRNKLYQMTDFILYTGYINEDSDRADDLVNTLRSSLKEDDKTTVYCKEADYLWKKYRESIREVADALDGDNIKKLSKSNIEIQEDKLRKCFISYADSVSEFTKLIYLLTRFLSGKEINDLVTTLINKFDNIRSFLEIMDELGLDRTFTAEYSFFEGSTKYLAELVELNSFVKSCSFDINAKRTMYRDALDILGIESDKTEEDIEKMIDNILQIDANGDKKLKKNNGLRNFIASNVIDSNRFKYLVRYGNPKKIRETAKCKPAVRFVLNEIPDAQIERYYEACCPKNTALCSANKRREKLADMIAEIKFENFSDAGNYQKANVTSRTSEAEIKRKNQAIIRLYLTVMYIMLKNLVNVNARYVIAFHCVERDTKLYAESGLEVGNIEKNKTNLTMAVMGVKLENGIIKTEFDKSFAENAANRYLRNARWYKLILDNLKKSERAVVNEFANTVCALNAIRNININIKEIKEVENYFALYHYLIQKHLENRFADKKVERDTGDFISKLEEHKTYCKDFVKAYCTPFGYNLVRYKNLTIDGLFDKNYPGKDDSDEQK
Assay: crRNA (strand 1, pre-loaded); Mg2+; 40 mM Tris-HCl pH 7.5, 150 mM NaCl, 6 mM MgCl2, 1 mM DTT, 0.1% Tween-20, 0.2 mg/ml BSA; 25 C; 10 min per concentration, then washed
Conditions: tags: His6-TwinStrep-SUMO cleaved; N-terminal SNAP kept (SNAP-Surface 488); label: 3' end held by stalled T7 RNA polymerase

| Binder | Kd [nM] |
| --- | --- |
| B1 | 11 ± 0.5 |
| B2 | ~70 |
| B3 | 11.2 ± 0.5 |
| B4 | 49.5 ± 7.5 |
| B5 | 74 ± 12 |
| B6 | 73.5 ± 9.5 |
| B7 | 40.5 ± 6 |
| B8 | 27 ± 4.5 |
| B9 | 36.5 ± 10.5 |
| B10 | 12.3 ± 1.6 |
| B11 | 23.7 ± 2.45 |
| B12 | 14.7 ± 1.1 |
| B13 | 67.5 ± 9 |
| B14 | 62.5 ± 12 |
| B15 | 12.2 ± 1.35 |
| B16 | 94 ± 39.5 |
| B17 | 13.8 ± 2 |

| Binder | Kd [nM] |
| --- | --- |
| B18 | 102 ± 21 |
| B19 | 66.5 ± 15.5 |
| B20 | 5.23 ± 0.375 |
| B21 | 19.5 ± 1.7 |
| B22 | 96 ± 32.5 |
| B23 | 82 ± 19 |
| B24 | 59 ± 9.5 |
| B25 | 73 ± 14 |
| B26 | 31 ± 10 |
| B27 | 3.12 ± 0.355 |
| B28 | 47.6 ± 10.6 |
| B29 | 3.65 ± 0.55 |
| B30 | 50 ± 6 |
| B31 | 65.5 ± 15 |
| B32 | 24.1 ± 3.15 |
| B33 | 38.7 ± 6.25 |
